This data set concerns the molecule itself. The data set can be described thus: native gel or EMSA. Background: A gel shift assay detects complexes by their altered migration in electrophoresis.

This is an account of results in article PMC7172368 (Antiviral Research, 2007).

B1: recombinant porcine ficolin α with C-terminal V5 and 6 x His tags (natural protein)
chain: not shown
As to B1, the binding result is “binds”.
